# Data as given in publication PMC4254451, “The Crystal Structures of Apo and cAMP-Bound GlxR from Corynebacterium glutamicum Reveal Structural and Dynamic Changes upon cAMP Binding in CRP/FNR Family Transcription Factors”.
# T1: GlxR (Cg-GlxR) (Corynebacterium glutamicum, UniProt Q79VI7 1-227)
# T1 sequence: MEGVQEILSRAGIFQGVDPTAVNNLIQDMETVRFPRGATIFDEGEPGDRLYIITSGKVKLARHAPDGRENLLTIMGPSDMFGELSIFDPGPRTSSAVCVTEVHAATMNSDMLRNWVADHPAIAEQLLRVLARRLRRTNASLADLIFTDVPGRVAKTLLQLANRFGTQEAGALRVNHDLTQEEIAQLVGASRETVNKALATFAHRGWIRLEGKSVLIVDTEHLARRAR
# B1: FITC-labelled 26-mer duplex (dsDNA)
# DNA 1: ATTAATGTGAGTTAGCTCACTCATTA
# DNA 2: TAATGAGTGAGCTAACTCACATTAAT
# Molecular target: T1, GlxR (Cg-GlxR)
# Assay: fluorescence anisotropy; 1.5 mM cAMP; 100 mM KH2PO4 pH 7.8, 200 mM KCl, 1 mM 1-thioglycerol, 0 or 1.5 mM cAMP, 5 nM labelled DNA; temperature not stated
# Conditions: protein: recombinant; tags: His6 (N-terminal, pET16b); chain copies: 2; label: 5'-FITC on strand 1; blunt
binder,measurement,value
B1,Kd,87 nM
